From patent publication US20150344570A1 (published 2015)
Substitutions are numbered along the chain they refer to.

T1: FcgRIIaH (human, UniProt P12318 34-217)
T1 construct: extracellular domain; also called FcγRIIa H; FcgRIIa type H; not shown: His tag attached to the C terminus
T1 sequence (looked up): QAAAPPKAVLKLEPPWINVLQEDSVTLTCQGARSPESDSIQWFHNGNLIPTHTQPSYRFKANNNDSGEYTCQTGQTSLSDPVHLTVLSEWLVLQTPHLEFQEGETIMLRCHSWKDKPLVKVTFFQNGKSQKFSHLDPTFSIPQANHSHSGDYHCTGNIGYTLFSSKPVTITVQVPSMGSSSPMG

T2: FcgRIIaR (human, UniProt P12318 34-217)
T2 construct: extracellular domain; also called FcγRIIa R; FcgRIIa type R; not shown: His tag attached to the C terminus
T2 sequence (looked up): T1 sequence (looked up) with H134R

T3: FcgRIIb (human, UniProt P31994 43-217)
T3 construct: extracellular domain; also called FcγRIIb; 2b; not shown: His tag attached to the C terminus
T3 sequence (looked up): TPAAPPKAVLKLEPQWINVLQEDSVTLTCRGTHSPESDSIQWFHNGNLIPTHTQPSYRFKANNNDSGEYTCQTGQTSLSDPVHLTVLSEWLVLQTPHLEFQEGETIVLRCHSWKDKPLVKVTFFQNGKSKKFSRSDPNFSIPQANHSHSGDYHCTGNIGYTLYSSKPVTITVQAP

B1: H240-Kn209/H240-Hl076/L73-k0 (antibody, human IgG1, kappa)
heavy 1: QDQLVQSGAEVKKPGASVKVSCKASGFNIKDTYIQWVRQAPGQGLEWMGRIDPLRKQTKYREKFEGRVTITADTSTNTAYMELSSLRSEDTAVYYCVRSGREFDYWGQGTLVTVSSASTKGPSVFPLAPSSKSTSGGTAALGCLVKDYFPEPVTVSWNSGALTSGVHTFPAVLQSSGLYSLSSVVTVPSSSLGTQTYICNVNHKPSNTKVDKKVEPKSCDKTHTCPPCPAPEQQWGPMVFLFPPKPKDTLMISRTPEVTCVVVDVSDEEPEVKFNWYVDGVEVHNAKTKPREEQYNATYRVVSVLTVLHQDWLNGKEYKCKVSNKALPAPIEKTISKAKGQPREPQVCTLPPSRDELTKNQVSLWCLVKGFYPSDIAVEWESNGQPENNYKTTPPVLDSDGSFFLYSKLTVDKSRWQQGNVFSCSVMHEALHNHYTQKSLSLSP
heavy 2: QDQLVQSGAEVKKPGASVKVSCKASGFNIKDTYIQWVRQAPGQGLEWMGRIDPLRKQTKYREKFEGRVTITADTSTNTAYMELSSLRSEDTAVYYCVRSGREFDYWGQGTLVTVSSASTKGPSVFPLAPSSKSTSGGTAALGCLVKDYFPEPVTVSWNSGALTSGVHTFPAVLQSSGLYSLSSVVTVPSSSLGTQTYICNVNHKPSNTKVDKKVEPKSCDKTHTCPPCPAPELLGGPSVFLFPPKPKDTLMISRTPEVTCVVVDVSHEEPEVKFNWYVDGVEVHNAKTKPREEQYNSTYRVVSVLTVLHQDWLNGKEYKCKVSNDALPMPIEETISKAKGQPREPQVYTLPPSRCELTKNQVSLSCAVKGFYPSDIAVEWESNGQPENNYKTTPPVLDSDGSFFLVSKLTVDKSRWQQGNVFSCSVMHEALHNHYTQKSLSLSP
light: DIQMTQSPSSLSASVGDRVTITCRASQDIHKYIAWYQQKPGQAPRLLIQYTSTLQPGVPSRFSGSGSGTDYTFTISSLQPEDIATYYCLQYEQLRTFGGGTKVEIKRTVAAPSVFIFPPSDEQLKSGTASVVCLLNNFYPREAKVQWKVDNALQSGNSQESVTEQDSKDSTYSLSSTLTLSKADYEKHKVYACEVTHQGLSSPVTKSFNRGEC
notes: Anti-epiregulin heterodimerized IgG1, knobs-into-holes
B2: H240-Kn222/H240-Hl068/L73-k0 (antibody, human IgG1, kappa)
heavy 1: B1 heavy 1 with Q233A, Q234Y, E269D, A326D
heavy 2: B1 heavy 2 with M329K
light: B1 light
notes: as for B1
B3: H240-Kn212/H240-Hl076/L73-k0 (antibody, human IgG1, kappa)
heavy 1: B1 heavy 1 with Q233T
heavy 2: B1 heavy 2
light: B1 light
notes: as for B1
B4: H240-Kn213/H240-Hl076/L73-k0 (antibody, human IgG1, kappa)
heavy 1: B1 heavy 1 with Q233A
heavy 2: B1 heavy 2
light: B1 light
notes: as for B1
B5: H240-Kn219/H240-Hl068/L73-k0 (antibody, human IgG1, kappa)
heavy 1: B1 heavy 1 with Q233I, Q234Y, E269D, A326D
heavy 2: B1 heavy 2 with M329K
light: B1 light
notes: as for B1
B6: H240-Kn210/H240-Hl076/L73-k0 (antibody, human IgG1, kappa)
heavy 1: B1 heavy 1 with Q233I
heavy 2: B1 heavy 2
light: B1 light
notes: as for B1
B7: H240-Kn223/H240-Hl068/L73-k0 (antibody, human IgG1, kappa)
heavy 1: B1 heavy 1 with Q233G, Q234Y, E269D, A326D
heavy 2: B1 heavy 2 with M329K
light: B1 light
notes: as for B1
B8: H240-Kn221/H240-Hl068/L73-k0 (antibody, human IgG1, kappa)
heavy 1: B1 heavy 1 with Q233T, Q234Y, E269D, A326D
heavy 2: B1 heavy 2 with M329K
light: B1 light
notes: as for B1
B9: H240-Kn217/H240-Hl068/L73-k0 (antibody, human IgG1, kappa)
heavy 1: B1 heavy 1 with Q233D, Q234Y, E269D, A326D
heavy 2: B1 heavy 2 with M329K
light: B1 light
notes: as for B1
B10: H240-Kn220/H240-Hl068/L73-k0 (antibody, human IgG1, kappa)
heavy 1: B1 heavy 1 with Q233M, Q234Y, E269D, A326D
heavy 2: B1 heavy 2 with M329K
light: B1 light
notes: as for B1
B11: H240-Kn211/H240-Hl076/L73-k0 (antibody, human IgG1, kappa)
heavy 1: B1 heavy 1 with Q233M
heavy 2: B1 heavy 2
light: B1 light
notes: as for B1
B12: H240-Kn215/H240-Hl076/L73-k0 (antibody, human IgG1, kappa)
heavy 1: B1 heavy 1 with Q233H
heavy 2: B1 heavy 2
light: B1 light
notes: as for B1
B13: H240-Kn216/H240-Hl068/L73-k0 (antibody, human IgG1, kappa)
heavy 1: B1 heavy 1 with Q233V, Q234Y, E269D, A326D
heavy 2: B1 heavy 2 with M329K
light: B1 light
notes: as for B1
B14: H240-Kn214/H240-Hl076/L73-k0 (antibody, human IgG1, kappa)
heavy 1: B1 heavy 1 with Q233G
heavy 2: B1 heavy 2
light: B1 light
notes: as for B1
B15: H240-Kn218/H240-Hl068/L73-k0 (antibody, human IgG1, kappa)
heavy 1: B1 heavy 1 with Q234Y, E269D, A326D
heavy 2: B1 heavy 2 with M329K
light: B1 light
notes: as for B1

target: T4, FcgRIIIaF (human, UniProt P08637 17-208); assay: SPR (Biacore); KD of H240-Kn033/H240-Hl033/L73-k0 divided by KD of this variant
T4 construct: extracellular domain; also called FcγRIIIa F; 3aF; not shown: His tag attached to the C terminus
Protocol: (§1) H240-Kn204/H240-Hl211/L73-k0 and H240-Kn205/H240-Hl212/L73-k0 were prepared according to the method of Reference Example 1, by combining H240-Kn204 as one of the H chains and L73-k0 as the L chains with H240-Hl211 as the other H chain, and by combining H240-Kn205 as one of the H chains and L73-k0 as the L chains with H240-Hl212 as the other H chain, and then expressing them. The binding of the prepared variants to FcgRIa, FcgRIIaR, FcgRIIaH, FcgRIIb, FcgRIIIaF, and FcgRIIIaV was measured according to the method of Reference Example 8.
(§2) “fold 2aR”, “fold 2aH”, “fold 2b”, “fold 3aF”, and “fold 3aV” show the relative binding activity of each variant to FcgRIIaR, FcgRIIaH, FcgRIIb, FcgRIIIaF, and FcgRIIIaV, respectively, when the binding activity of H240-Kn033/H240-Hl033/L73-k0, a variant produced by introducing only alterations that promote formation of a heterodimerized antibody into a native IgG1, is defined as 1. Specifically, they are values obtained by dividing the KD value of H240-Kn033/H240-Hl033/L73-k0 for each FcgR by the KD value of an individual variant for each FcgR.
(§3) Analysis of interaction between objective antibody and the FcγR was carried out using Biacore T100 (GE Healthcare), Biacore T200, Biacore A100, and Biacore 4000. HBS-EP+ (GE Healthcare) was used as the running buffer, and the measurement temperature was set to 25° C. Chips produced by immobilizing the antigen peptide by the amine coupling method to a Series S sensor Chip CM5 (GE Healthcare), chips produced by allowing preliminarily biotinylated antigen peptides to interact with and immobilize onto a Series S Sensor Chip SA (certified) (GE Healthcare), chips produced by immobilizing Protein L (ACTIGEN, BioVision) to Series S Sencor Chip CM5 (GE Healthcare), or chips produced by immobilizing Protein A/G (Thermo Scientific) to Series S Sencor Chip CM5 (GE Healthcare) were used. Antibodies of interest were captured onto these chips, and allowed to interact to each FcγR diluted with running buffer.

T4 sequence (P08637 17-208): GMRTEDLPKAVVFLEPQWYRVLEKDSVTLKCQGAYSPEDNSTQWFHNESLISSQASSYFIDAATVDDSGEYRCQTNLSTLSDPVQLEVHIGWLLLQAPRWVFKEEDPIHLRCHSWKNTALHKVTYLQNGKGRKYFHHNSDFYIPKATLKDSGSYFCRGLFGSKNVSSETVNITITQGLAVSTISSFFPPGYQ

Row | fold 3aF [fold] | Binder
1 | 121 | B1
2 | 87.9 | B2
3 | 138 | B3
4 | 112 | B4
5 | 107 | B5
6 | 161 | B6
7 | 69 | B7
8 | 107 | B8
9 | 121 | B9
10 | 82.9 | B10
11 | 153 | B11
12 | 112 | B12
13 | 85.3 | B13
14 | 85.3 | B14
15 | 82.9 | B15

target: T1, FcgRIIaH; assay: as above
Protocol: as §1, §2, §3

Row | fold 2aH [fold] | Binder
16 | 2.1 | B1
17 | 10.6 | B2
18 | 2.3 | B3
19 | 2.5 | B4
20 | 26 | B5
21 | 3.5 | B6
22 | 5.5 | B7
23 | 11.8 | B8
24 | 6.8 | B9
25 | 15.3 | B10
26 | 2.6 | B11
27 | 2.1 | B12
28 | 16.3 | B13
29 | 1.6 | B14
30 | 15.8 | B15

target: T2, FcgRIIaR; assay: as above
Protocol: as §1, §2, §3

Row | fold 2aR [fold] | Binder
31 | 0.6 | B1
32 | 26.4 | B2
33 | 1.2 | B3
34 | 0.9 | B4
35 | 52.9 | B5
36 | 1.3 | B6
37 | 11.9 | B7
38 | 25.5 | B8
39 | 26.4 | B9
40 | 29.6 | B10
41 | 1.3 | B11
42 | 0.7 | B12
43 | 32.2 | B13
44 | 0.7 | B14
45 | 20 | B15

target: T3, FcgRIIb; assay: as above
Protocol: as §1, §2, §3

Row | fold 2b [fold] | Binder
46 | 0.4 | B1
47 | 17.4 | B2
48 | 0.6 | B3
49 | 0.5 | B4
50 | 36.7 | B5
51 | 0.8 | B6
52 | 11.8 | B7
53 | 15 | B8
54 | 27.5 | B9
55 | 20.6 | B10
56 | 0.8 | B11
57 | 0.5 | B12
58 | 20.6 | B13
59 | 0.5 | B14
60 | 15 | B15

target: T5, FcgRIIIaV (human, UniProt P08637 17-208); assay: as above
T5 construct: extracellular domain; also called FcγRIIIa V; 3aV; not shown: His tag attached to the C terminus
Protocol: as §1, §2, §3

T5 sequence (P08637 17-208 F176V limits assumed): as the sequence (P08637 17-208) above, with F160V counted along it

Row | fold 3aV [fold] | Binder
61 | 77.4 | B1
62 | 88.9 | B2
63 | 82.8 | B3
64 | 65.8 | B4
65 | 98 | B5
66 | 98 | B6
67 | 84.2 | B7
68 | 102 | B8
69 | 126 | B9
70 | 96 | B10
71 | 92.3 | B11
72 | 70.6 | B12
73 | 104 | B13
74 | 60 | B14
75 | 96 | B15
